{
  "source": "the RNAGym collection of RNA variant scans (doi:10.1073/pnas.2313332121)",
  "parents": {"B1": {"name": "TPR 5TU (parent)", "chain": "GGAUCUUCUCGAUCUAACAAAAAAGACAAAUCUGCCACAAAGCUUGAGAGCAUCUUCGGAUGCAGAGGCGGCAGCCUUCGGUGGCGCGAUAGCGCCAACGUUCUCAACUAUGACACGCAAAACGCGUGCUCCGUUGAAUGGAGUUUAUCAUG"}},
  "note": "Variants at the floor of the assay were thinned out.",
  "data": [
    {"variants_of": "B1", "assay": "polymerase ribozyme fitness, log enrichment relative to wild type (log ratio); higher = more active; in vitro selection for triplet polymerase activity", "summary_of_the_method": "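Mutant libraries were PCR-built and transcribed for each subunit of a heterodimeric triplet polymerase ribozyme and selected for one round in triplicate at −7 °C, frozen, before gel excision of extended constructs and streptavidin-bead capture. Input and output libraries were Illumina-sequenced, keeping genotypes with ≥10 input reads and ≥1 read per output. Fitness is a logarithmic ratio of genotype to wild-type enrichment, in base 2, using inverse-variance-weighted replicate averages.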", "values": [
      {"variant": "GGAUCUUCUCGAUCUAACAGAAAAGACAAAUCUGCCACAAAGUUUGAGAGCAUCUUCGGAUUCAGAGGCGGCAGCCUUCGGUGGCGCGAUGGCGCCAACGUUCUCAACUAUGACACGCAAAACGCGUGCUCCGUUGAAUGGAGUUUAUCAUG", "polymerase ribozyme fitness (log ratio)": "≤ -4.2"},
      {"variant": "GGAUCUUCUCGAUCUAACAGAAAAGACAAAUCUGCCACAAAGCUUGAGAGCAUCUUCGGAUGCAGAGGCGGCGGCCUUCGGUGGAGCGAUAGCGCCAACGUUCUCAACUAUGACACGCAAAACGCGUGCUCCGUUGAAUGGAGUUUAUCAUG", "polymerase ribozyme fitness (log ratio)": -2.05},
      {"variant": "GGAUCUUCUCGAUCUAACAGAAAAGACAAAUCUGCCACAAAGCUUGAGAGCUUCUUAGGAUUCAGAGGCGGCAGCCUUCGGUGGCGCGAUAGCGACAACGUUCUCAACUAUGACACGCAAAACGCGUGCUCCCUUGAAUGGAGUUUAUCUUG", "polymerase ribozyme fitness (log ratio)": -1.8},
      {"variant": "GGAUCUUCUCGAUCUAACAGAAAAGACAAAUCUGCCAUAAAGCUUGCGAGCAUCUUCGGGUGCAGAGGCGGCAGCCUUCGGUGGCGCGAUAGUGCCAACGUUCUCGACUAUGACACGCAAAACGCGUUCUCCGUUGAAUGGAGUUUAUCAUG", "polymerase ribozyme fitness (log ratio)": "≤ -4.2"},
      {"variant": "GGAUCUUCUCGAUCUAACAGAAAAGACAAAUCUGGCACAAAGCUUGAGAGAAUCUUCGGAUGCAGAGGCGGCAGCCUUCGGUGGUGCGAUAGCGCCAAUGUUCUCAACUAUGACACGCAAAACGCGUGAUCCGUUGAAUGGAGUUUAACAUG", "polymerase ribozyme fitness (log ratio)": "≤ -4.2"},
      {"variant": "GGAUCUUCUCGAUCUAACAGAAAAGACAAAUCUGCCACAAAGCUUGAGAGCAUCUUCGGAUGCAGAGGCGGCAGCCUUCGGUGGCGCGAUAGCGCCAACGUUCUCAACUAUGACACGCAAAACGCGUGCUCCGUUGAAUGGCGUUUAUCAUG", "polymerase ribozyme fitness (log ratio)": -1.06},
      {"variant": "GGAUCUUCUCGAUCUAACAGAAAAGACAAAUCUGCCACAAAGCUUGAGAGCAUGUUCGGAUGCAGAGGCGGCAGCCUUCGGUGGCGCGAUAGCGCUAACGUUCUCAACUAUGACACGCAAAACGCGUGCUCCGUUGAAUGGAGUUUAUCAUG", "polymerase ribozyme fitness (log ratio)": -2},
      {"variant": "GGAUCUUCUCGAUCUAACAGAAAAGACAAAUCUGGCACAAAGCUUGAGCGCAUCUUCGGAUGCAGAGGCGGCGGCCUUCGGUGGCGGGAUAGCGCCAACGUUCUCAACUAUGACACGCAAAACGCGUGCUCCGUUGAAUGGAGUUUAUCAUG", "polymerase ribozyme fitness (log ratio)": "≤ -4.2"},
      {"variant": "GGAUCUUCUCGAUCUAACAGAAAAGACAAAUCUGCCACAAAGCUUGAGAGCAUCUUCGGAUGCAGAGGCGGCAGCCUUCGGUGGCGCGAUAGCGCCAACGUUCUCAGCUAUGACAGGCAAAGCACGUCCUCCGUUGAAUGGAGUUUAUCAUG", "polymerase ribozyme fitness (log ratio)": "≤ -4.2"},
      {"variant": "GGAUCUUCUCGAUCUAACAGAAAAGAGAAAUCUGCCACAAAGCUUGAGAGCAUCUUCGGAUGCAUAGGCGGCAGCCUUCGAUGGCGCAAUAGCGCCAACGUUCUCAACUAUGACACGCAAAACGCGUGCUCCGUUGACUGGAUUUUAUCAUG", "polymerase ribozyme fitness (log ratio)": "≤ -4.2"},
      {"variant": "GGAUCUUCUCGAUCUAACAGAAAAGACAAAUCUGCCACAAAGCUUGAGAGUAUCUUCGGAUGCAGAGGCGGCAGCCUUCGGUGGCGCGAUAGCGCCAACGUUCUCAACUAUGACACGCAAAACGCGUGCUCCGUUGAAUGGAGUUUAUCAUG", "polymerase ribozyme fitness (log ratio)": -0.842},
      {"variant": "GGAUCUUCUCGAUCUAACAGAAAAGACAAAUCUGCGACAAAGCUUGAGAGCAUCUUCGGAUGCAGAGGCGGCAGCCUUCGGUAGCGCGAUGGCGCCAACGUUCUCAACUAUGACACGCAAAACGCGUGCUCCGUUGAAUGGGGUUUAUCAUG", "polymerase ribozyme fitness (log ratio)": "≤ -4.2"},
      {"variant": "GGAUCUUCUCGAUCUAACAGAAAAGAGAAAUCUGCCACAAAGCUUGAGAGCAUCUUCGGAUGCAGACGCGGCAGCCUGCGGUGGCGCGUUAGGGCCAACGUUCUCAACUAUGACACGCAAAACACGUGCUCCGUUGAAUGGAGUUUAUCAGG", "polymerase ribozyme fitness (log ratio)": "≤ -4.2"},
      {"variant": "GGAUCUUCUCGAUCUAACAGAAAAGACAAAUCUGCCACAAAGCUUGAGAGCAUCUUCGGAUGCAGAGGCGGCAGCCUUCGGUGGCGCGAUGGCGCCAACGUUCUCAACUAUGACACGCAAAACGCGUGCUCCGUUGAAUGGAGUUAAUCAUG", "polymerase ribozyme fitness (log ratio)": -3.96},
      {"variant": "GGAUCUUCUCGAUCUAACAGAAAAGACAAAUCUGCCACAAAGCUUGAGAGCAUCUUCGGAUGCAGAGGCGGCUGCCUUCGGUAGCGCGAUAGCGCCAACGUUCUCAACUAUGACACGCAAAACGCGUGCUCCGUUGAAUGGAGUUUAUCAUG", "polymerase ribozyme fitness (log ratio)": -2.36},
      {"variant": "GGAUCUUCUCGAUCUAACAGAAAAGACAAAUGUGCCACAAAGCUUGAGAGCAUCUUCGGAUGCAGAGGCGGCAGCCUUCGGUGGCUAGAUAGCGCCAACGUUCUCAACAAUGACACGCAAAACGCGUGCUCCGUUGAAUGGAGUUUAUCAUG", "polymerase ribozyme fitness (log ratio)": "≤ -4.2"},
      {"variant": "GGAUCUUCUCGAUCUAACAGAAAAGAUAAAUCUGUCACAAAGCUUGAGUGCAUCUUCGGAUGCAGAGGCGGCAGCUUUCGGUGGCGCGAUAGCGCCAACGUUCUCAACUAUGACACGCAAAACGUGUGCUCCGUUGAAUGGAGUUUAUCAUG", "polymerase ribozyme fitness (log ratio)": "≤ -4.2"},
      {"variant": "GGAUCUUCUCGAUCUAACAGAAAAGACAAAUCUGCCACAAAGCUUGAGAGCAUCUUCGGAUGCAGAGGCGGCAGCCUUCGGUGGCGCGAUUGCGCCAACGUUCUCAACUAUGACACGCAAAACGCGUGCUCCGUUGAAUGGAGUUUAUCAUG", "polymerase ribozyme fitness (log ratio)": "≤ -4.2"},
      {"variant": "GGAUCUUCUCGAUCUAACAGAAAAGAAAAAUCUGCCACAAAGCUUGGGAGCAUCUUCGGAUGCAGAGGCGGCAGCCUUCGGUGGCGCGAUAACGCCAACGUUCUCAACUAUGACACGCAAAACGCGUGCUCCGUUGAAUGGAGUUUAUCAUG", "polymerase ribozyme fitness (log ratio)": "≤ -4.2"}
    ]}
  ]
}
